From US20090192048A1, “METHOD OF PRODUCING A […] AGENT FOR BINDING A LIGAND” (priority 2005, published 2009)
Ends that are not written are not given here.

What was measured:
Assay type in all cases: physicochemical
[1] = Retention of peptides on Costar polypropylene V-bottom wells; settings: 400V scan
Procedure, shortened: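 Peptides (5 μM) and TAMRA dried from 5 mM tris-HCl pH 8.0 in 75% acetonitrile in V-bottom wells; some wells washed 15 min at room temperature with 1 M NaCl in 10 mM tris-HCl pH 8.0. Residue redissolved in 10 mM tris-HCl pH 8.0/50% acetonitrile; retained fluorescence imaged with 532 nm excitation, 580 BP 30 filter.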

[2] = pH resistance of peptide 2DOS-2 deposited onto a polypropylene hydrophobic surface; settings: for Retained fluorescence: 100 mM phosphate buffer 30 minutes
Procedure: The pH resistance of peptide 2DOS-2 (see above) deposited onto a polypropylene hydrophobic surface was investigated:
Twelve 50 μl aliquots of peptide 2DOS-2 in 10 mM tris-HCl (pH 8.0) in 50% (v/v) aqueous acetonitrile were dried down in the wells of a Costar microtitre plate.
The peptide samples were allowed to evaporate to dryness in the dark.
The dried peptide samples in the first eleven wells were incubated with 200 μl of 100 mM phosphate buffer for 30 minutes at room temperature according to the scheme shown in Table 3:
All supernatants were pipetted off and the residual surface-bound peptides in all twelve wells were finally resuspended in 50 μl of 10 mM tris-HCl (pH 8.0) in 50% (v/v) aqueous acetonitrile and the microtitre plate was imaged at 200 μm resolution on a Typhoon Trio Plus variable mode imager (Amersham Biosciences) with the green (532 nm) laser and the 580 BP 30 filter at the PMT voltages indicated below and at normal sensitivity. The scan height was set at +3 mm and the sample was pressed during scanning.
The fluorescence images were analysed using ImageQuant TL v2003.03 (Amersham Biosciences).
Quantification data for peptide 2DOS-2 retention (using data from the 300V scan) are given in Table 8 and graphically in FIG. 19: […]

[3] = Retention of peptides in flat-bottomed polypropylene wells; settings: flat-bottom wells, 500V scan
Procedure, shortened: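 1 μl of 10 μM peptide or TAMRA in 10 mM Tris-HCl pH 8.0/50% acetonitrile dried in the dark in flat- or V-bottomed polypropylene wells. Some wells washed 15 min at RT with 1 M NaCl in 10 mM Tris pH 8.0, others left untreated; all redissolved in 50 μl Tris/acetonitrile and fluorescence imaged at 532 nm excitation, 580 BP 30 filter.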

[4] = washed 15 minutes in 1 M NaCl in 10 mM tris-HCl (pH 8.0)

With “N-TAMRA-Phe-Asp- Phe-Ala-Phe-Ser- Phe-Lys-Phe-C ({TAMRA}-FDFAFSFKF) [Peptide 2DOS-2]” the Percent retention [1] was 94%, the Untreated fluorescence ([1]; unwashed) was 5,692,134 and the Retained fluorescence [1, 4] was 5,349,601. For the same substance, the Untreated fluorescence ([2]; 300V scan, unwashed well) was 815,706, the “Stability of retention on polypropylene over pH (in words)” value ([2]; pH 4.51 to 8.52) was “stable over a broad range of pH values” and the Percent retention ([2]; wash pH 4.51) was 83%. For the same substance, the Retained fluorescence ([2]; wash pH 4.51, 300V scan) was 681,015, the Percent retention ([2]; wash pH 5.65) was 71% and the Retained fluorescence ([2]; wash pH 5.65, 300V scan) was 582,482. The Percent retention ([2]; wash pH 6.02) was 67%, the Retained fluorescence ([2]; wash pH 6.02, 300V scan) was 548,329 and the Percent retention ([2]; wash pH 6.25) was 67%. The Retained fluorescence ([2]; wash pH 6.25, 300V scan) was 542,595, the Percent retention ([2]; wash pH 6.47) was 72% and the Retained fluorescence ([2]; wash pH 6.47, 300V scan) was 589,528. The Percent retention ([2]; wash pH 6.62) was 69%, the Retained fluorescence ([2]; wash pH 6.62, 300V scan) was 566,496 and the Percent retention ([2]; wash pH 6.79) was 71%. The Retained fluorescence ([2]; wash pH 6.79, 300V scan) was 576,655, the Percent retention ([2]; wash pH 6.98) was 70% and the Retained fluorescence ([2]; wash pH 6.98, 300V scan) was 570,653. For the same substance, the Percent retention ([2]; wash pH 7.18) was 72%, the Retained fluorescence ([2]; wash pH 7.18, 300V scan) was 586,083 and the Percent retention ([2]; wash pH 7.47) was 75%. For the same substance, the Retained fluorescence ([2]; wash pH 7.47, 300V scan) was 614,028, the Percent retention ([2]; wash pH 8.52) was 81% and the Retained fluorescence ([2]; wash pH 8.52, 300V scan) was 661,781. For the same substance, the Percent retention [3] was 93%, the Untreated fluorescence ([3]; unwashed) was 15,820,680 and the Retained fluorescence [3, 4] was 14,665,720.
